Measured values taken from paper doi:10.1101/2025.02.22.639629 (bioRxiv, 2025).

B1: mature IL-37 (Lys53 N-terminus) (ligand, human, UniProt Q9NZH6 53-218, looked up)
chain: KNLNPKKFSIHDQDHKVLVLDSGNLIAVPDKNYIRPEIFFALASSLSSASAEKGSPILLGVSKGEFCLYCDKDKGQSHPSLQLKKEKLMKLAAQKESARRPFIFYRAQVGSWNMLESAAHPGWFICTSCNCNEPVGVTDKFENRKHIEFSFQPVCKAEMSPSEVSD
B2: IL-37 R158A (ligand, human, UniProt Q9NZH6 53-218, looked up)
chain: KNLNPKKFSIHDQDHKVLVLDSGNLIAVPDKNYIRPEIFFALASSLSSASAEKGSPILLGVSKGEFCLYCDKDKGQSHPSLQLKKEKLMKLAAQKESARRPFIFYAAQVGSWNMLESAAHPGWFICTSCNCNEPVGVTDKFENRKHIEFSFQPVCKAEMSPSEVSD

Target: the molecule itself
Test: SEC-MALS

Row | Protein | stoichiometry N
1 | B1 | 2
2 | B2 | 2
